Measured values taken from US20170306033A1 (Amgen, published 2017).
Numbering of substitutions follows the chain as printed.

T1: human PAC1 receptor (human, UniProt P41586 21-468)
T1 sequence: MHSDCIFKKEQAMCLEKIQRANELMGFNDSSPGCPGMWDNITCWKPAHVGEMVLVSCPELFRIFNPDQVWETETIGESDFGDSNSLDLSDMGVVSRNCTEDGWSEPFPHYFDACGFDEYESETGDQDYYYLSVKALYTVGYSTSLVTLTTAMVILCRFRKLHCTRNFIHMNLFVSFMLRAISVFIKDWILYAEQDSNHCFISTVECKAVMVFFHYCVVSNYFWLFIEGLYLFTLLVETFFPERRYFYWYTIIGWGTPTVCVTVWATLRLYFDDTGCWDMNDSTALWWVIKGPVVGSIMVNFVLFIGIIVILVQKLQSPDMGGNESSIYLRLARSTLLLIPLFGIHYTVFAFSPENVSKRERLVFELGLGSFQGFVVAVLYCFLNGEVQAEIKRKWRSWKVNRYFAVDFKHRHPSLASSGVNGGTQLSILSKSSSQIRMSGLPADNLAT

B1: iPS:327103 (bispecific antibody, human IgG1, kappa, lambda, N297G)
light 1: DIQLTQSPSFLSASVGDRVTITCRASQSIGRSLHWYQQKPGKAPKLLIKYASQSLSGVPSRFSGSGSGTEFTLTISSLQPEDFATYYCHQSSRLPFTFGPGTKVDIKRTVAAPSVFIFPPSDEQLKSGTASVVCLLNNFYPREAKVQWKVDNALQSGNSQESVTEQDSKDSTYSLESTLTLSKADYEKHKVYACEVTHQGLSSPVTKSFNRGEC
heavy 1: not shown
light 2: not shown
heavy 2: not shown
B2: iPS:327274 (bispecific antibody, human IgG1, kappa, lambda, N297G)
light 1: B1 light 1 with P100E
heavy 1: not shown
light 2: not shown
heavy 2: EVQLVESGGGLVKPGGSLRLSCAASGFTFSNAWMSWVRQAPGKELEWVGRIKSKTDGGTTDYTAPVKGRFTISRDDSKNTLYLQMNSLKAEDTAVYYCTTDRTGYSISWSSYYYYYGMDVWGQGTTVTVSSASTKGPSVFPLAPSSKSTSGGTAALGCLVKDYFPEPVTVSWNSGALTSGVHTFPAVLQSSGLYSLESVVTVPSSSLGTQTYICNVNHKPSNTKVDKKVEPKSCDKTHTCPPCPAPELLGGPSVFLFPPKPKDTLMISRTPEVTCVVVDVSHEDPEVKFNWYVDGVEVHNAKTKPCEEQYGSTYRCVSVLTVLHQDWLNGKEYKCKVSNKALPAPIEKTISKAKGQPREPQVYTLPPSRKEMTKNQVSLTCLVKGFYPSDIAVEWESNGQPENNYKTTPPVLKSDGSFFLYSKLTVDKSRWQQGNVFSCSVMHEALHNHYTQKSLSLSPGK
B3: iPS:327269 (bispecific antibody, human IgG1, kappa, lambda, N297G)
light 1: B1 light 1
heavy 1: not shown
light 2: not shown
heavy 2: not shown
B4: iPS:327111 (bispecific antibody, human IgG1, kappa, lambda, N297G)
light 1: B1 light 1
heavy 1: not shown
light 2: not shown
heavy 2: not shown
B5: iPS:327108 (bispecific antibody, human IgG1, kappa, lambda, N297G)
light 1: EIVLTQSPATLSLSPGERATLSCRASQSVGRSLHWYQQKPGQAPRLLIKYASQSLSGIPARFSGSGSGTDFTLTISSLEPEDFAVYYCHQSSRLPFTFGEGTKVDIKRTVAAPSVFIFPPSDEQLKSGTASVVCLLNNFYPREAKVQWKVDNALQSGNSQESVTEQDSKDSTYSLESTLTLSKADYEKHKVYACEVTHQGLSSPVTKSFNRGEC
heavy 1: not shown
light 2: not shown
heavy 2: B2 heavy 2 with S30G, T63A, A90T, Y97F
B6: iPS:327270 (bispecific antibody, human IgG1, kappa, lambda, N297G)
light 1: B5 light 1 with E100P
heavy 1: not shown
light 2: not shown
heavy 2: not shown
B7: iPS:327112 (bispecific antibody, human IgG1, kappa, lambda, N297G)
light 1: B5 light 1 with E100P
heavy 1: not shown
light 2: not shown
heavy 2: not shown
B8: iPS:327105 (bispecific antibody, human IgG1, kappa, lambda, N297G)
light 1: DIQMTQSPSSLSASVGDRITITCRASQSISRYLNWYQQKPGKAPKLLIYAASSLQSGIPSRFSGSGSGTDFTLTINSLQPEDFATYFCQQSYSPPFTFGEGTKVDIKRTVAAPSVFIFPPSDEQLKSGTASVVCLLNNFYPREAKVQWKVDNALQSGNSQESVTEQDSKDSTYSLESTLTLSKADYEKHKVYACEVTHQGLSSPVTKSFNRGEC
heavy 1: not shown
light 2: not shown
heavy 2: B2 heavy 2 with S30G, T63A, A90T, Y97F
B9: iPS:327275 (bispecific antibody, human IgG1, kappa, lambda, N297G)
light 1: B5 light 1
heavy 1: not shown
light 2: not shown
heavy 2: B2 heavy 2
B10: iPS:327272 (bispecific antibody, human IgG1, kappa, lambda, N297G)
light 1: B8 light 1
heavy 1: not shown
light 2: not shown
heavy 2: B2 heavy 2
B11: iPS:326654 (bispecific antibody, human IgG2, kappa, lambda)
light 1: B5 light 1 with E100P
heavy 1: QVQLVESGGGVVQPGRSLRLSCAASGFTFSRFAMHWVRQAPGKGLEWVAVISYDGGNKYYAESVKGRFTISRDNSKNTLYLQMNSLRAEDTALFYCARGYDVLTGYPDYWGQGTLVTVSSASTKGPSVFPLAPCSRSTSESTAALGCLVKDYFPEPVTVSWNSGALTSGVHTFPAVLQSSGLYSLKSVVTVPSSNFGTQTYTCNVDHKPSNTKVDKTVERKCCVECPPCPAPPVAGPSVFLFPPKPKDTLMISRTPEVTCVVVDVSHEDPEVQFNWYVDGVEVHNAKTKPREEQFNSTFRVVSVLTVVHQDWLNGKEYKCKVSNKGLPAPIEKTISKTKGQPREPQVYTLPPSREEMTKNQVSLTCLVDGFYPSDIAVEWESNGQPENNYDTTPPMLDSDGSFFLYSDLTVDKSRWQQGNVFSCSVMHEALHNHYTQKSLSLSPGK
light 2: not shown
heavy 2: not shown
B12: iPS:327273 (bispecific antibody, human IgG1, kappa, lambda, N297G)
light 1: not shown
heavy 1: not shown
light 2: not shown
heavy 2: B2 heavy 2
B13: iPS:327104 (bispecific antibody, human IgG1, kappa, lambda, N297G)
light 1: B5 light 1 with E100P
heavy 1: not shown
light 2: not shown
heavy 2: not shown
B14: iPS:386705 (bispecific antibody, human IgG1, lambda, N297G)
light: QSVLTQPPSVSAAPGQKVTISCSGSSSNIGNNYVSWYQQLPGTAPKLLIYDNNKRPSGIPDRFSGSKSGTSTTLGITGLQTGDEADYYCGTWDSRLSAVVFGGGTKLTVLGQPKANPTVTLFPPSSEELQANKATLVCLISDFYPGAVTVAWKADGSPVKAGVETTKPSKQSNNKYAASSYLSLTPEQWKSHRSYSCQVTHEGSTVEKTVAPTECS
heavy: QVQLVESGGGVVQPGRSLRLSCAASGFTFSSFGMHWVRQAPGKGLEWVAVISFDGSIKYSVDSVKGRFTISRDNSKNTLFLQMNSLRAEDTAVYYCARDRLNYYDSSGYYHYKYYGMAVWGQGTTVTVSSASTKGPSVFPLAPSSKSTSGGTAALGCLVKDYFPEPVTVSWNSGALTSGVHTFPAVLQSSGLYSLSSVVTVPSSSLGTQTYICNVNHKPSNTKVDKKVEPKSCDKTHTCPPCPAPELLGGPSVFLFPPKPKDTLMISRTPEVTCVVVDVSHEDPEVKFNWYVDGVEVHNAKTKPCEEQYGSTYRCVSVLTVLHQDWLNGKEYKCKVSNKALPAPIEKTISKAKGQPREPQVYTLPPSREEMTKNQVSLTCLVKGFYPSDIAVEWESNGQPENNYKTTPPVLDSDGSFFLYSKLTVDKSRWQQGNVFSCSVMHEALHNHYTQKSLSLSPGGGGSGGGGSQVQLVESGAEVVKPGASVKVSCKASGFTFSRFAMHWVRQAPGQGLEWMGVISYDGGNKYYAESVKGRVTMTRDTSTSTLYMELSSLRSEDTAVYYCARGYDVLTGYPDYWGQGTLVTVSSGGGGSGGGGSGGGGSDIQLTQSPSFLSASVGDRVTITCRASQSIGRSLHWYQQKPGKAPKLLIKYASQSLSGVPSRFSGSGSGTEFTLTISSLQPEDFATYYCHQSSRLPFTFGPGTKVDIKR
B15: iPS:386707 (bispecific antibody, human IgG1, lambda, N297G)
light: B14 light
heavy: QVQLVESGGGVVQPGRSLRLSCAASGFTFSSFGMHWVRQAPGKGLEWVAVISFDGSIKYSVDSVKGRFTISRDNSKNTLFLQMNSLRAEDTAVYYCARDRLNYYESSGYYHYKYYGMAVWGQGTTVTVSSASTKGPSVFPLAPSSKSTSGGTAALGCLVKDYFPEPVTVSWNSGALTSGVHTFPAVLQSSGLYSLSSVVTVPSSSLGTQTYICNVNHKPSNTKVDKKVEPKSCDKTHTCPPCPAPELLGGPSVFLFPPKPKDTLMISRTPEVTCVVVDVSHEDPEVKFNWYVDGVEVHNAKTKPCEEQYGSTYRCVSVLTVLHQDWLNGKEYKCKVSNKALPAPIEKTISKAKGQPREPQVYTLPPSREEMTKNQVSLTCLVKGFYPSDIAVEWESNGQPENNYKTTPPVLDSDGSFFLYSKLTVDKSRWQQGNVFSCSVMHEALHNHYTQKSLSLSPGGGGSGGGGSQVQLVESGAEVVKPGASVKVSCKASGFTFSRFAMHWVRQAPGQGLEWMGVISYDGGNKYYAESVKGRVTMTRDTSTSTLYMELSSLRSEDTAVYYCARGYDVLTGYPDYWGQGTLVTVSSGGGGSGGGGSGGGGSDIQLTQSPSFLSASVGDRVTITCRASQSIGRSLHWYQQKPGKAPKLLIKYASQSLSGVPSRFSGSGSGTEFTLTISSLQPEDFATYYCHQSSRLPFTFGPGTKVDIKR
B16: iPS:386709 (bispecific antibody, human IgG1, lambda, N297G)
light: B14 light with T72A
heavy: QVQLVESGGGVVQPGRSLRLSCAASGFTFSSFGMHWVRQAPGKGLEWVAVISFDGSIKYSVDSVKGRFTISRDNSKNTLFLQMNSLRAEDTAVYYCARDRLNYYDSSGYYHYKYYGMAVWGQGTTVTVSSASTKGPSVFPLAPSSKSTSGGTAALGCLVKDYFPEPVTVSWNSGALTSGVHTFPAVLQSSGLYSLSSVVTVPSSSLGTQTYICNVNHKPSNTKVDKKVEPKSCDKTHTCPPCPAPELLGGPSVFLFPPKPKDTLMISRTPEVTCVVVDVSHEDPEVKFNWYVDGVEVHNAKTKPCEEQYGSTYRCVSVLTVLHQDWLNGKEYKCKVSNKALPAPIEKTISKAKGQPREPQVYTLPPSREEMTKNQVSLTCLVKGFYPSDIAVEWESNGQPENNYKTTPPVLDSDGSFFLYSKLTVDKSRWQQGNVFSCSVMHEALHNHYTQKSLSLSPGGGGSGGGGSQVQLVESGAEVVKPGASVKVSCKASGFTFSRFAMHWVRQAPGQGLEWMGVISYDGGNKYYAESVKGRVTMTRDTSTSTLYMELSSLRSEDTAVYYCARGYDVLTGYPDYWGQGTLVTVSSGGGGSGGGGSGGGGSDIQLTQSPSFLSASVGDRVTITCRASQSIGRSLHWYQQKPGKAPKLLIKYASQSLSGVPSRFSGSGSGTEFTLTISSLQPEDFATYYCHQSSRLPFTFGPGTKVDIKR

What follows are binders tested against T2, human CGRP receptor (human, UniProt Q16602 23-461; O60894 27-148) (assay: cell-based or functional assay).
T2 sequence (Q16602 23-461 limits assumed, chain 1 of 2): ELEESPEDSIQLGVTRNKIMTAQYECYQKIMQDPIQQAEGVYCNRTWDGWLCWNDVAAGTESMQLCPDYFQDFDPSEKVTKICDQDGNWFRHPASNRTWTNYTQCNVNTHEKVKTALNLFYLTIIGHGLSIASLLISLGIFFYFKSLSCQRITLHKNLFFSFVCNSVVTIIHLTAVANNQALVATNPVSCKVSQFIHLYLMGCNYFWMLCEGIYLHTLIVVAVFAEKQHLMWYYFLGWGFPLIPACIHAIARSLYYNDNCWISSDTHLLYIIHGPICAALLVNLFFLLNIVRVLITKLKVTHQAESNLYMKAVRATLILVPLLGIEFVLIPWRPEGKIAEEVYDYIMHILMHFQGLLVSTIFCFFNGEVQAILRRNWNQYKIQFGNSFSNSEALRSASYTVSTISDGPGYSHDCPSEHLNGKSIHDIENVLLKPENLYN
T2 sequence (O60894 27-148 limits assumed, chain 2 of 2): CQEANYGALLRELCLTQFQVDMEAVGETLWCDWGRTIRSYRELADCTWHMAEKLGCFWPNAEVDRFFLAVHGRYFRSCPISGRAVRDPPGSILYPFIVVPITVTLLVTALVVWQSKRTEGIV

| % inhibition of human CGRPR | Binder |
| --- | --- |
| 82% | B1 |
| 87% | B2 |
| 79% | B3 |
| 88% | B4 |
| 66% | B5 |
| 71% | B6 |
| 84% | B7 |
| 81% | B8 |
| 85% | B9 |
| 81% | B10 |
| 79% | B11 |
| 81% | B12 |
| 81% | B13 |

The binders below were run against T1, human PAC1 receptor (assay: cell-based or functional assay).

| % inhibition of human PAC1 | Binder |
| --- | --- |
| 21% | B1 |
| 22% | B2 |
| 8% | B3 |
| 65% | B4 |
| 74% | B5 |
| 82% | B6 |
| 104% | B7 |
| 63% | B8 |
| 86% | B9 |
| 62% | B10 |
| 99% | B11 |
| 10% | B12 |
| 95% | B13 |

Target: T2, human CGRP receptor
Assay: cell-based or functional assay
Remark: another data set of the same source

| Human CGRP Receptor IC50 | Binder |
| --- | --- |
| 0.43 nM | B14 |
| 0.47 nM | B15 |
| 0.47 nM | B16 |

Target: T1, human PAC1 receptor
Assay: cell-based or functional assay
Remark: another data set of the same source

| Human PAC1 Receptor IC50 | Binder |
| --- | --- |
| 605 nM | B14 |
| 740 nM | B15 |
| 432 nM | B16 |
